# Assay results: patent US7488592
# T1: GST-CCaaX, P01120
# T1 chain: CCIIS
# T2: GST-Ras2(HV)CCaaX, P01120
# T2 chain: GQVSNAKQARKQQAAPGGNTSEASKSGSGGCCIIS
# T3: GST-Ras2CCaaX, P01120
# T3 chain: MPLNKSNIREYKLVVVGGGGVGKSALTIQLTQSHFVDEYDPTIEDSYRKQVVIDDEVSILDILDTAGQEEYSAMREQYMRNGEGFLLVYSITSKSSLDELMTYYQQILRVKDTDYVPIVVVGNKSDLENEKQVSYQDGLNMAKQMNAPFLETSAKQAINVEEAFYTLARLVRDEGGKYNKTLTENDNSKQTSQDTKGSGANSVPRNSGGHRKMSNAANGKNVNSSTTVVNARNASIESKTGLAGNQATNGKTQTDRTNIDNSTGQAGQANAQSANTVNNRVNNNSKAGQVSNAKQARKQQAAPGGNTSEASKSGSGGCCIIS
# B1: Erf2p/Erf4p complex (GST-Erf4p/FLAG-Erf2p on GSH beads) (protein)
# chain 1: MALVSRRSTRSESTSITKEEHTGEGSLTKLFFRWLVTLEGDQDINDGKGYISLPNVSNYIFFLGGRFRTVKGAKPLWLGVLLAIVCPMVLFSIFEAHKLWHTQNGYKVLVIFFYYFWVITLASFIRTATSDPGVLPRNIHLSQLRNNYQIPQEYYNLITLPTHSSISKDITIKYCPSCRIWRPPRSSHCSTCNVCVMVHDHHCIWVNNCIGKRNYRFFLIFLLGAILSSVILLTNCAIHIARESGGPRDCPVAILLLCYAGLTLWYPAILFTYHIFMAGNQQTTREFLKGIGSKKNPVFHRVVKEENIYNKGSFLKNMGHLMLEPRGPSFVSARKPHEAGDWRFMDLSPAHSFEKIQKI
# chain 2: MCDSHQKEEDNANTSERALFFNYHEFSYSFYEDLGSEDAKPTEHDEDHKLCITHFPNVYAARGSAEFQVTRVVRVPRRFDESRSSLETPQFSTQLPGSEPAAIVGDDGTSFVRCGRYDIGDHVFGCSSVSPLSEYLSAAELAEVVHRVNGFLLREEGEVFGWRNLSGLLLDMLTGGLWSWVLGPLLSRPVFQESLALEQYVAQLNSPGGLLHERGVRLVLPRRSGCLSLDFVVPRPK
# Columns and labels:
# GST-CCaaX, P01120 = target: T1, GST-CCaaX, P01120
# [1] = target: T2, GST-Ras2(HV)CCaaX, P01120
# GST-Ras2CCaaX, P01120 = target: T3, GST-Ras2CCaaX, P01120
# [2] = target: H-Ras (N-terminal His6-tagged fusion), P01112
# H-Ras (N-terminal His6-tagged fusion), P01112, sequence (P01112 whole entry, looked up, the tested form may be a part): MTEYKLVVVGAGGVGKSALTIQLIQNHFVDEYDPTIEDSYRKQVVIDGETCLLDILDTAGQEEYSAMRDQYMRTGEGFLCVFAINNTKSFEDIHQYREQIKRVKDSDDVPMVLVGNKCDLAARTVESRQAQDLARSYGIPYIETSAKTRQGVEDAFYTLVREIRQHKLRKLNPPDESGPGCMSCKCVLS
protein,measurement,setting,value
B1,in vitro palmitoylation relative to GST-(HV)CCaaX,"GST-CCaaX, P01120",reduced 10-fold compared with GST-(HV)CCaaX
same,acceleration of the spontaneous rate of palmitoylation,[1],~160-fold
same,"palmitate incorporated into the Ras2p substrate (in vitro PAT assay, [3H]palmitoyl-CoA)",[1],0.14 pmol/min
same,palmitate transferred (PAT assay),[1],2720 pmol palmitate transferred/min/\u00b5mol substrate
same,in vitro palmitoylation (PAT assay),"GST-Ras2CCaaX, P01120",palmitoylated GST(HV)CCIIS to levels similar to full-length GST-Ras2CCIIS
same,palmitate transferred (PAT assay),[2],40 vs 2720 pmol palmitate transferred/min/\u00b5mol substrate
same,palmitoylation level relative to Ras2p,[2],"levels much lower (5%) than the proposed natural substrate, Ras2p"
same,palmitate transferred (PAT assay),Myristoylated Gi1,55 vs 2720 pmol palmitate transferred/min/\u00b5mol substrate
same,palmitoylation level relative to yeast Ras2p,Myristoylated Gi1,~5% that of yeast Ras2p
